Where a chain is given by its changes, count along the chain named. Values belong to the binder of their own block, whether it stands above or below them.
How the values were obtained:
[1] = target: T1, recombinant PD-1 extracellular domain Fc fusion protein (PD-1 Fc) (human, biotin label (sites not given) in the ELISA binding assay; unlabelled when coated in the ligand blocking assay); assay: ligand binding blocking ELISA as in Example 2, competitor biotin-labeled PD-L1
T1 construct: also called human PD-1Fc; human PD-1
Protocol: (§1) In this experiment, a 96-well plate was coated with a PD-1 protein with the extracellular domain fused with FC (PD-1-FC), and incubated with the test PD-1 antibody; later biotin-labeled PD-L1 was added for incubation. After washing the plate, the binding amount of biotin-labeled PD-L1 was detected; the blocking IC₅₀ value of PD-1 antibody for ligand PD-L1 binding was calculated.
PD-1-FC was diluted to 1 μg/ml with PH 9.6 CB buffer (1.59 g Na₂CO₃ and 2.93 g NaHCO₃ were dissolved in 1 L of distilled water), pipetted into a 96-well plate at 100 μl/well and standed for 16 h-20 h at 4° C. The 96-well plate was washed once with PBST (PH7.4 PBS, containing 0.05% tweeen20) after PBS buffer was removed, then the plate was incubated and blocked for 1 h at room temperature with 120 μl/well PBST/1% milk. After removal of the blocking solution, the plate was washed with PBST buffer once, followed by addition of 90 μl of test PD-1 antibody which was diluted to a suitable concentration with sample diluents (PH7.4 PBS containing 5% BSA, 0.05% Tween20), and incubated for 1 h at 4° C. Then 10× concentrations of biotin-labeled PD-L1 (Beijing Sino Biological Inc.) (10 μg/ml) was added to the plate at 10 μl/well, oscillated and mixed by an oscillator, and incubated at 37° C. for 1 h. After removal of the reaction system, the plate was washed for 6 times with PBST buffer, followed by addition of 100 ul/well Streptavidin-Peroxidase Polymer which was diluted by PBST at a ratio of 1:400, and incubated under oscillation for 50 min at room temperature. After being washed with PBST for 6 times, the plate was added with 100 μl/well TMB, and incubated for 5-10 min at room temperature. Then the reaction was terminated with addition of 100 μl/well 1M H₂SO₄. The absorbance value at 450 nm was read on the NOVOStar microplate reader; the blocking IC₅₀ value of PD-1 for ligand PD-L1 binding was calculated.
(§2) Humanized antibodies were subjected to ELISA binding assay (method is the same as that of Example 2), ligand binding blocking assay (method is the same as that of Example 2), and affinity kinetics experiment (method is the same as that of Example 5) in vitro.

[2] = target: T2, PD-1 His protein (Beijing Sino Biological Inc.) (UniProt Q15116 25-167, limits assumed); assay: Biacore SPR as in Example 5, PD-1 His as analyte
T2 construct: Bought reagent, analyte in the Biacore assay; not shown: His tag
Protocol: (§3) According to the instruction of a kit provided by Biacore, the test PD-1 antibody of the present invention was covalently linked to CM5 (GE) chip using a standard amino coupling method. Then a series of gradient concentrations of PD-1 His protein (Beijing Sino Biological Inc.), which were diluted in the same buffer, were loaded into each cycle successively. After that, the samples were regenerated with regenerated reagent in the kit. The antigen-antibody binding kinetics was tracked for 3 minutes and the dissociation kinetics was tracked for 10 minutes. The data obtained was analyzed by GE's BIAevaluation software using 1:1 (Langmuir) binding model.
as §2

[3] = target: T1, recombinant PD-1 extracellular domain …; assay: ELISA as in Example 2, biotinylated PD-1 Fc captured on avidin
Protocol: (§4) The PD-1 antibody blocks signaling pathway of PD-1 and its ligand by binding to PD-1 extracellular domain. In vitro ELISA assay is used to detect the binding property of the PD-1 antibody. Biotinylated PD-1 extracellular domain FC fusion protein (PD-1 FC) is coated onto 96-well plates by binding to neutralization avidin. Signal intensity after the addition of the antibody is used to determine the binding property of the antibody and PD-1.
(§5) Neutralization avidin (binding to biotin) was diluted to 1 μl/ml with PBS buffer, pipetted into a 96-well plate with at 100 μl/well and standed for 16 h-20 h at 4° C. The 96-well plate was washed once with PBST (PH7.4 PBS, containing 0.05% tweeen20) after PBS buffer was removed, then the plate was incubated and blocked for 1 h at room temperature with addition of 120 μl/well PBST/1% milk. After removal of the blocking solution, the plate was washed with PBST buffer, followed by addition of 1 μg/ml biotin-labeled PD1-FC which was diluted by PBST/1% milk, and incubated for 1 h at room temperature. After removal of the blocking solution, the plate was washed with PBST buffer for 3 times, followed by addition of the test PD-1 antibody which was diluted to a suitable concentration by PBST/1% milk, and incubated for 1.5 h at room temperature. After removal of reaction system, the plate was washed for 3 times with PBST buffer, followed by addition of 100 μl/well HRP-labeled anti-murine secondary antibody (The Jackson Laboratory) which was diluted by PBST/1% milk, and incubated for 1 h at room temperature. After being washed with PBST for three times, the plate was added with 100 μl/well TMB, and incubated for 5-10 min at room temperature. Then the reaction was terminated with addition of 100μ/well 1M H₂SO₄. The absorbance value at 450 nm was read on NOVOStar microplate reader; the ELISA binding EC₅₀ value was calculated.
as §2

cynomolgus PD-1Fc = target: T3, cynomolgus PD-1Fc (cynomolgus, UniProt B0LAJ3 25-170, Probably biotinylated for capture on avidin, as the human PD-1 FC was in this ELISA. Fused to an Fc that is not given.); assay: ELISA, cyno PD-1Fc
T3 construct: Source and construct of the cynomolgus PD-1 Fc fusion are not described; also called cyno PD-1; not shown: Fc part of the cynomolgus PD-1Fc fusion, and any linker

[4] = target: T1, recombinant PD-1 extracellular domain …; assay: ligand binding blocking ELISA: PD-1-FC coated, competitor biotin-labeled PD-L1
Protocol: as §1
PD-1-FC was diluted to 1 μg/ml with PH 9.6 CB buffer (1.59 g Na₂CO₃ and 2.93 g NaHCO₃ were dissolved in 1 L of distilled water), pipetted into a 96-well plate at 100 μl/well and standed for 16 h-20 h at 4° C. The 96-well plate was washed once with PBST (PH7.4 PBS, containing 0.05% tweeen20) after PBS buffer was removed, then the plate was incubated and blocked for 1 h at room temperature with 120 μl/well PBST/1% milk. After removal of the blocking solution, the plate was washed with PBST buffer once, followed by addition of 90 μl of test PD-1 antibody which was diluted to a suitable concentration with sample diluents (PH7.4 PBS containing 5% BSA, 0.05% Tween20), and incubated for 1 h at 4° C. […] The absorbance value at 450 nm was read on the NOVOStar microplate reader; the blocking IC₅₀ value of PD-1 for ligand PD-L1 binding was calculated.

[5] = target: T4, human PD1-FC (Beijing Sino Biological Inc.) (human, UniProt Q15116 25-167, limits assumed); assay: selectivity ELISA, protein coated at 1 µg/ml
T4 construct: not shown: Fc part
Protocol: (§6) To detect the specific binding activity of PD-1 antibody to other proteins of the PD-1 family, human CTLA4 and human CD28 were used for binding assays. Meanwhile, the PD-1 of mice was also used for binding assays so as to determine the diversity of PD-1 antibody for different species other than human/monkey.
(§7) Selectively binding proteins: human PD-1, human ICOS, human CTLA4, human CD28 and mouse PD-1, (Beijing Sino Biological Inc.), were respectively diluted to 1 μg/ml with PBS buffer, pipetted into a 96-well plate at 100 μl/well and standed for 16 h-20 h at 4° C. The 96-well plate was washed once with PBST (PH7.4 PBS, containing 0.05% tweeen20) after PBS buffer was removed, then the plate was incubated and blocked for 1 h at room temperature with 120 μl/well PBST/1% milk. After removal of the blocking solution, the plate was washed with PBST buffer for 3 times, followed by addition of the test PD-1 antibody, and incubated for 1.5 h at room temperature. After removal of the reaction system, the plate was washed for 3 times with PBST, followed by addition of 100 μl/well HRP-labeled anti-murine secondary antibody (The Jackson Laboratory) which was diluted by PBST/1% milk, and incubated for 1 h at room temperature. The plate was washed for 3 times with PBST, followed by addition of 100 μl/well TMB, and incubated for 5-10 min at room temperature. Then the reaction was terminated with addition of 100 μl/well 1M H₂SO₄. The absorbance value at 450 nm was read on the NOVOStar microplate reader.

[6] = target: T5, human ICOS/Fc (Beijing Sino Biological Inc.) (human, UniProt Q9Y6W8 21-141, limits assumed); assay: selectivity ELISA, protein coated at 1 µg/ml
T5 construct: Bought reagent; not shown: Fc part
T5 sequence (looked up): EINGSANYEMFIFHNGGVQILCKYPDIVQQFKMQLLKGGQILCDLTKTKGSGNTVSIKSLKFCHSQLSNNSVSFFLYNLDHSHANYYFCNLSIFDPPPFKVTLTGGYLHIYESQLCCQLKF
Protocol: as §6, §7

[7] = target: T6, human CD28 (Beijing Sino Biological Inc.) (human, UniProt P10747 19-152); assay: selectivity ELISA, protein coated at 1 µg/ml
T6 construct: Bought reagent
Protocol: as §6, §7

[8] = target: T7, human CTLA4 (Beijing Sino Biological Inc.) (human, UniProt P16410 36-162, limits assumed); assay: selectivity ELISA, protein coated at 1 µg/ml
T7 construct: Bought reagent
T7 sequence (looked up): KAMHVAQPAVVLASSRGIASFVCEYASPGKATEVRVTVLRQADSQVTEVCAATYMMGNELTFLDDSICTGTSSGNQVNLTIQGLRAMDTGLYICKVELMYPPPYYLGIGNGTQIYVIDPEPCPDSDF
Protocol: as §6, §7

[9] = target: T8, mouse PD1-Fc (Beijing Sino Biological Inc.) (mouse, UniProt Q02242 25-167, limits assumed); assay: selectivity ELISA, protein coated at 1 µg/ml
T8 construct: Bought reagent; also called murine PD-1; not shown: Fc part
T8 sequence (looked up): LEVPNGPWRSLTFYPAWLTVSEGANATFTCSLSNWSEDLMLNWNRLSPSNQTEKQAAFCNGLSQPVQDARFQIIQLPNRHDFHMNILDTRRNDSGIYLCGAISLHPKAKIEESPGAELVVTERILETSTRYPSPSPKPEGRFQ
Protocol: as §6, §7

[10] = target: T1, recombinant PD-1 extracellular domain …; assay: ELISA, biotinylated PD-1 Fc captured on avidin
Protocol: as §4
as §5, with “After removal of reaction system, the plate was washed for 3 times with PBST buffer, followed by addition of 100 μl/well HRP-labeled anti-murine secondary antibody (The Jackson Laboratory) which was diluted by PBST/1% milk, and incubated for 1 h at room temperature. After being washed with PBST for three times, the plate was added with 100 μl/well TMB, and incubated for 5-10 min at room temperature. Then the reaction was terminated with addition of 100μ/well 1M H₂SO₄.” left out

[11] = target: T5, human ICOS/Fc (Beijing Sino Biological …); assay: ELISA, protein coated at 1 µg/ml
Protocol: as §6, §7

[12] = target: T6, human CD28 (Beijing Sino Biological …); assay: ELISA, protein coated at 1 µg/ml
Protocol: as §6, §7

[13] = target: T7, human CTLA4 (Beijing Sino Biological …); assay: ELISA, protein coated at 1 µg/ml
Protocol: as §6, §7

[14] = target: T8, mouse PD1-Fc (Beijing Sino Biological …); assay: ELISA, protein coated at 1 µg/ml
Protocol: as §6, §7

[15] = target: T2, PD-1 His protein (Beijing Sino …); assay: Biacore SPR, antibody coupled to CM5 chip, PD-1 His as analyte, 1:1 model
Protocol: as §3

- IC50 [1]: 1.27 nM
- Kd [2]: 2.79 nM
- EC50 [3]: 0.11 nM
B1: humanized antibody H005-1 (antibody, human IgG4 S228P, kappa, F234A L235A, V domains shown)
VH: EVQLVESGGGLVQPGGSLRLSCAASGFTFSSYMMSWVRQAPGKGLEWVATISGGGANTYYPDSVKGRFTISRDNAKNSLYLQMNSLRAEDTAVYYCARQLYYFDYWGQGTTVTVSS
VL: DIQMTQSPSSLSASVGDRVTITCLASQTIGTWLTWYQQKPGKAPKLLIYTATSLADGVPSRFSGSGSGTDFTLTISSLQPEDFATYYCQQVYSIPWTFGGGTKVEIKR
notes: CDR graft of mAb005 on IgHV3-7/JH6 and IGKV1-39/JK4, IgG4 constant region; expressed in HEK293 cells; also called PD-1 antibody H005-1

- IC50 [1]: 1.36 nM
- Kd [2]: 3.89 nM
- EC50 [3]: 0.14 nM
B2: humanized antibody H005-4 (antibody, human IgG4 S228P, kappa, F234A L235A, name in Kabat numbering, V domains shown)
VH: B1 VH with G44R
VL: B1 VL with A43S
notes: Back-mutated variant of H005-1, IgG4 constant region

- IC50 [1]: 1.27 nM
- Kd [2]: 2.98 nM
- EC50 [3]: 0.14 nM
B3: humanized antibody H005-2 (antibody, human IgG4 S228P, kappa, F234A L235A, name in Kabat numbering, V domains shown)
VH: B1 VH with G44R
VL: B1 VL
notes: as for B2

- IC50 [1]: 1.33 nM
- Kd [2]: 2.45 nM
- EC50 [3]: 0.15 nM
B4: humanized antibody H005-3 (antibody, human IgG4 S228P, kappa, F234A L235A, name in Kabat numbering, V domains shown)
VH: B1 VH
VL: B1 VL with A43S
notes: as for B2

- EC50 (cynomolgus PD-1Fc): 0.27 nM
- IC50 [4]: 1.13 nM
- absorbance at 450 nm [5]: 2.64
- absorbance at 450 nm [6]: 0.15
- absorbance at 450 nm [7]: 0.12
- absorbance at 450 nm [8]: 0.17
- absorbance at 450 nm [9]: 0.07
- EC50 [10]: 0.25 nM
- binding result [11]: no binding
- binding result [12]: no binding
- binding result [13]: no binding
- binding result [14]: no binding
- Kd [15]: 3.57 nM
- koff [15]: 0.000377 s⁻¹
- kon [15]: 106000 M⁻¹ s⁻¹
B5: murine monoclonal antibody mAb005 (antibody, V domains shown)
VH: EVMLVESGGGLVKPGGSLKLSCAASGFTFSSYMMSWVRQTPEKRLEWVATISGGGANTYYPDSVKGRFTISRDNAKNTLYLQMSSLRSEDTALYYCARQLYYFDYWGQGTTLTVSS
VL: DIQMTQSPASQSASLGEGVTITCLASQTIGTWLTWYQQKPGKSPQLLIYTATSLADGVPSRFSGSGSGTKFSFKISSLQAEDFVTYYCQQVYSIPWTFGGGTKLEIK
notes: Murine monoclonal antibody from a hybridoma; also called PD-1 antibody mAb005
